# Read-outs that look alike come from different tables or passages of the source. Positions of bridges follow the written chain, without caps; N, C: chain ends. Non-standard residues stand in square brackets, D forms with d. No end group written: not given here. *: point of attachment. Palmitoyl = CCCCCCCCCCCCCCCC(=O)*; Aib = CC(C)(N)C(=O)O
# T1: GIP receptor (UniProt P48546 22-466)
# T1 sequence (looked up): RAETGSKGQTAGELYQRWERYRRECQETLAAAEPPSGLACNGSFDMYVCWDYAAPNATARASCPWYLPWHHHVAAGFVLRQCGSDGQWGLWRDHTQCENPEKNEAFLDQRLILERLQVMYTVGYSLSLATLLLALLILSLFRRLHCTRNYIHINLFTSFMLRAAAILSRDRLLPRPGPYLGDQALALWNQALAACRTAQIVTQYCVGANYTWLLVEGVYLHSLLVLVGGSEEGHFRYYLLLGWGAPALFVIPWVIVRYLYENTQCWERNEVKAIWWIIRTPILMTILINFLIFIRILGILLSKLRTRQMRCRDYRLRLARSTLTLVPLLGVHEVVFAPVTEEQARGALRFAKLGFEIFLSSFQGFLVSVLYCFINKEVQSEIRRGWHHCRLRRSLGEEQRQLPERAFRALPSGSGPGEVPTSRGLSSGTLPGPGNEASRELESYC
# B1: AIB2, AIB16, K10(C16), K30 Glucagon Amide (peptide)
# peptide: H[Aib]QGTFTSDK(Palmitoyl)SKYLD[Aib]RRAQDFVCWLMNTK-NH2
# modifications: N-terminus assumed
# SMILES: CCCCCCCCCCCCCCCC(=O)NCCCC[C@H](NC(=O)[C@H](CC(=O)O)NC(=O)[C@H](CO)NC(=O)[C@@H](NC(=O)[C@H](Cc1ccccc1)NC(=O)[C@@H](NC(=O)CNC(=O)[C@H](CCC(N)=O)NC(=O)C(C)(C)NC(=O)[C@@H](N)Cc1c[nH]cn1)[C@@H](C)O)[C@@H](C)O)C(=O)N[C@@H](CO)C(=O)N[C@@H](CCCCN)C(=O)N[C@@H](Cc1ccc(O)cc1)C(=O)N[C@@H](CC(C)C)C(=O)N[C@@H](CC(=O)O)C(=O)NC(C)(C)C(=O)N[C@@H](CCCNC(=N)N)C(=O)N[C@@H](CCCNC(=N)N)C(=O)N[C@@H](C)C(=O)N[C@@H](CCC(N)=O)C(=O)N[C@@H](CC(=O)O)C(=O)N[C@@H](Cc1ccccc1)C(=O)N[C@H](C(=O)N[C@@H](CS)C(=O)N[C@@H](Cc1c[nH]c2ccccc12)C(=O)N[C@@H](CC(C)C)C(=O)N[C@@H](CCSC)C(=O)N[C@@H](CC(N)=O)C(=O)N[C@H](C(=O)N[C@@H](CCCCN)C(N)=O)[C@@H](C)O)C(C)C
# B2: Glucagon (1-29a) Aib2 Aib16 (peptide)
# peptide: H[Aib]QGTFTSDYSKYLD[Aib]RRAQDFVQWLMNT-NH2
# modifications: N-terminus assumed
# SMILES: CSCC[C@H](NC(=O)[C@H](CC(C)C)NC(=O)[C@H](Cc1c[nH]c2ccccc12)NC(=O)[C@H](CCC(N)=O)NC(=O)[C@@H](NC(=O)[C@H](Cc1ccccc1)NC(=O)[C@H](CC(=O)O)NC(=O)[C@H](CCC(N)=O)NC(=O)[C@H](C)NC(=O)[C@H](CCCNC(=N)N)NC(=O)[C@H](CCCNC(=N)N)NC(=O)C(C)(C)NC(=O)[C@H](CC(=O)O)NC(=O)[C@H](CC(C)C)NC(=O)[C@H](Cc1ccc(O)cc1)NC(=O)[C@H](CCCCN)NC(=O)[C@H](CO)NC(=O)[C@H](Cc1ccc(O)cc1)NC(=O)[C@H](CC(=O)O)NC(=O)[C@H](CO)NC(=O)[C@@H](NC(=O)[C@H](Cc1ccccc1)NC(=O)[C@@H](NC(=O)CNC(=O)[C@H](CCC(N)=O)NC(=O)C(C)(C)NC(=O)[C@@H](N)Cc1c[nH]cn1)[C@@H](C)O)[C@@H](C)O)C(C)C)C(=O)N[C@@H](CC(N)=O)C(=O)N[C@H](C(N)=O)[C@@H](C)O
# B3: peptide of SEQ ID NO: 555 (peptide)
# peptide: YSQGTFTSDYSKYLDEQAAKEFVNWLMNGGPSSGAPPPS-NH2
# modifications: lactam 16-20; N-terminus assumed
# SMILES: CSCC[C@H](NC(=O)[C@H](CC(C)C)NC(=O)[C@H](Cc1c[nH]c2ccccc12)NC(=O)[C@H](CC(N)=O)NC(=O)[C@@H](NC(=O)[C@H](Cc1ccccc1)NC(=O)[C@H](CCC(=O)O)NC(=O)[C@@H]1CCCCNC(=O)CC[C@H](NC(=O)[C@H](CC(=O)O)NC(=O)[C@H](CC(C)C)NC(=O)[C@H](Cc2ccc(O)cc2)NC(=O)[C@H](CCCCN)NC(=O)[C@H](CO)NC(=O)[C@H](Cc2ccc(O)cc2)NC(=O)[C@H](CC(=O)O)NC(=O)[C@H](CO)NC(=O)[C@@H](NC(=O)[C@H](Cc2ccccc2)NC(=O)[C@@H](NC(=O)CNC(=O)[C@H](CCC(N)=O)NC(=O)[C@H](CO)NC(=O)[C@@H](N)Cc2ccc(O)cc2)[C@@H](C)O)[C@@H](C)O)C(=O)N[C@@H](CCC(N)=O)C(=O)N[C@@H](C)C(=O)N[C@@H](C)C(=O)N1)C(C)C)C(=O)N[C@@H](CC(N)=O)C(=O)NCC(=O)NCC(=O)N1CCC[C@H]1C(=O)N[C@@H](CO)C(=O)N[C@@H](CO)C(=O)NCC(=O)N[C@@H](C)C(=O)N1CCC[C@H]1C(=O)N1CCC[C@H]1C(=O)N1CCC[C@H]1C(=O)N[C@@H](CO)C(N)=O
# Columns and labels:
# Experiment in all cases: cell-based or functional assay
# glucagon receptor [1] = biological target: T2, glucagon receptor (UniProt P47871 26-477, limits assumed)
# T2 sequence (P47871 26-477 limits assumed): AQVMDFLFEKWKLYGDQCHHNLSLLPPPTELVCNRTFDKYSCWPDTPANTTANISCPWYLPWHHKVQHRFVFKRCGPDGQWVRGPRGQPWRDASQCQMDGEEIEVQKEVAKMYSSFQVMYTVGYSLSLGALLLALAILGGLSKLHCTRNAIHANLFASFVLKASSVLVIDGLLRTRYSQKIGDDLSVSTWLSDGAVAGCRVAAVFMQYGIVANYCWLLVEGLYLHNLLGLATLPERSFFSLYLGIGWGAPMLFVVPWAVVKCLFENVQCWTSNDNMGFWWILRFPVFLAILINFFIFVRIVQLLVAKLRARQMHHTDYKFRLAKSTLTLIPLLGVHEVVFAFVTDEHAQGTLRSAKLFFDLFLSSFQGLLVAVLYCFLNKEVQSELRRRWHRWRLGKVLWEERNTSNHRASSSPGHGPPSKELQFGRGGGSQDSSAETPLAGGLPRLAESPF
# GLP-1 receptor [2] = biological target: T3, GLP-1 receptor (UniProt P43220 24-463, limits assumed)
# glucagon receptor [3] = biological target: T2, glucagon receptor; remark: listed apart in the source
# GLP-1 receptor [4] = biological target: T3, GLP-1 receptor; remark: listed apart in the source
# glucagon receptor [5] = biological target: T2, glucagon receptor; remark: listed apart in the source
# GLP-1 receptor [6] = biological target: T3, GLP-1 receptor; remark: listed apart in the source
# glucagon receptor [7] = biological target: T2, glucagon receptor; remark: listed apart in the source
# GLP-1 receptor [8] = biological target: T3, GLP-1 receptor; remark: listed apart in the source
# glucagon receptor [9] = biological target: T2, glucagon receptor; remark: listed apart in the source
# GLP-1 receptor [10] = biological target: T3, GLP-1 receptor; remark: listed apart in the source
# glucagon receptor [11] = biological target: T2, glucagon receptor; remark: listed apart in the source
# GLP-1 receptor [12] = biological target: T3, GLP-1 receptor; remark: listed apart in the source
# glucagon receptor [13] = biological target: T2, glucagon receptor; remark: listed apart in the source
# GLP-1 receptor [14] = biological target: T3, GLP-1 receptor; remark: listed apart in the source
# glucagon receptor [15] = biological target: T2, glucagon receptor; remark: listed apart in the source
# GLP-1 receptor [16] = biological target: T3, GLP-1 receptor; remark: listed apart in the source
# glucagon receptor [17] = biological target: T2, glucagon receptor; remark: listed apart in the source
# GLP-1 receptor [18] = biological target: T3, GLP-1 receptor; remark: listed apart in the source
# glucagon receptor [19] = biological target: T2, glucagon receptor; remark: listed apart in the source
# GLP-1 receptor [20] = biological target: T3, GLP-1 receptor; remark: listed apart in the source
# GIP receptor [21] = biological target: T1, GIP receptor
# glucagon receptor [22] = biological target: T2, glucagon receptor; remark: listed apart in the source
# GLP-1 receptor [23] = biological target: T3, GLP-1 receptor; remark: listed apart in the source
# GIP receptor [24] = biological target: T1, GIP receptor; remark: listed apart in the source
# glucagon receptor [25] = biological target: T2, glucagon receptor; remark: listed apart in the source
# GLP-1 receptor [26] = biological target: T3, GLP-1 receptor; remark: listed apart in the source
# GIP receptor [27] = biological target: T1, GIP receptor; remark: listed apart in the source
# glucagon receptor [28] = biological target: T2, glucagon receptor; remark: listed apart in the source
# GLP-1 receptor [29] = biological target: T3, GLP-1 receptor; remark: listed apart in the source
# glucagon receptor [30] = biological target: T2, glucagon receptor; remark: listed apart in the source
binder,measurement,setting,value
HSQGTFTSDYSRYLDSRRAQDFVQWLMNK [Glucagon R12 K29],cAMP induction EC50,glucagon receptor [1],0.81 nM
same,cAMP induction EC50,GLP-1 receptor [2],0.41 nM
"HSEGTFTSDYSKYLDERRAQDFVQWLMNT-NH2 [E3, E16 Gluc-NH2]",Percent Potency Relative to Native Ligand,glucagon receptor [3],1.6%
same,Percent Potency Relative to Native Ligand,GLP-1 receptor [4],28.8%
B1,EC50,glucagon receptor [5],0.761 nM
same,EC50 (20% human plasma),glucagon receptor [5],0.313 nM
same,EC50 (20% human plasma),GLP-1 receptor [6],0.017 nM
B2,EC50,glucagon receptor [7],0.09 nM
same,EC50,GLP-1 receptor [8],0.1 nM
HSQGTFTSDYSKYLDERRAKDFVQWLMNT-NH2 [E16 K20-glucagon-NH2],EC50,glucagon receptor [9],0.18 nM
same,EC50,GLP-1 receptor [10],0.21 nM
same,EC50,glucagon receptor [11],0.203 nM
same,EC50,GLP-1 receptor [12],0.188 nM
same,Percent Potency Relative to Native Ligand,glucagon receptor [13],130%
same,Percent Potency Relative to Native Ligand,GLP-1 receptor [14],41.5%
same,EC50,glucagon receptor [15],0.18 nM
same,EC50,GLP-1 receptor [16],0.21 nM
same,Percent Potency Relative to Native Ligand,glucagon receptor [17],130%
same,Percent Potency Relative to Native Ligand,GLP-1 receptor [18],41.5%
HXQGTFTSDYSKYLDEQAAKEFIAWLMNGGPSSGAPPPSK (acylated Lys at 40) [mt-364],% Relative activity,glucagon receptor [19],350%
same,% Relative activity,GLP-1 receptor [20],355%
same,% Relative activity,GIP receptor [21],15.7%
same,% Relative activity,glucagon receptor [22],350%
same,% Relative activity,GLP-1 receptor [23],355%
same,% Relative activity,GIP receptor [24],15.7%
same,% Relative activity,glucagon receptor [25],350%
same,EC50,glucagon receptor [25],0.0183 nM
same,% Relative activity,GLP-1 receptor [26],355%
same,EC50,GLP-1 receptor [26],0.007 nM
same,% Relative activity,GIP receptor [27],15.7%
B3,EC50,glucagon receptor [28],0.044 nM
same,EC50,GLP-1 receptor [29],0.062 nM
HSEGTFTSDYSKYLDEQAAKEFIC(PEG 20 kDa)WLMNT-NH2 [Peptide V],glucagon agonism,glucagon receptor [30],> 10 fold

# Reference: patent US20120172295A1 (INDIANA UNIVERSITY RESEARCH AND TECHNOLOGY, published 2012)
